Results taken from patent US20250066490A1 (PROFOUNDBIO US, published 2025).
Positions count from the first letter of the chain named.

B1: 2D2, full IgG (antibody, V domains shown)
VH: QVQLQESGPGLVKPSETLSLTCTVSGGSVSSDYYYWSWIRQPPGKGLEWLGYIYYSGSTNYNPSLKSRVTISVDTSKNQFSLKLRSVTTADTAVYYCARGDGDYGGNCFDYWGQGTLVTVSS
VL: EIVLTQSPATLSLSPGERATLSCRASQSVSSYLAWYQQKPGQAPRLLIFDASNRATGIPARFSGSGSGTDFTLTISSLEPEDFAVYYCQQRLKFPLTFGGGTKVEIK
B2: 69A7 (parent antibody), full IgG (antibody, V domains shown)
VH: B1 VH
VL: B1 VL with L92S, K93N, F94W
notes: also called parent antibody 69A7
B3: 1H8, full IgG (antibody, V domains shown)
VH: B1 VH with Y104F, G105M, N107V
VL: B1 VL with L92S, K93N, F94W
B4: 2A4P0L1, full IgG (antibody, V domains shown)
VH: B1 VH with C108V, D110P
VL: B1 VL
B5: 1F6 (Vorsetuzumab), reference antibody, full IgG (antibody, V domains shown)
VH: QVQLVQSGAEVKKPGASVKVSCKASGYTFTNYGMNWVRQAPGQGLKWMGWINTYTGEPTYADAFKGRVTMTRDTSISTAYMELSRLRSDDTAVYYCARDYGDYGMDYWGQGTTVTVSS
VL: DIVMTQSPDSLAVSLGERATINCRASKSVSTSGYSFMHWYQQKPGQPPKLLIYLASNLESGVPDRFSGSGSGTDFTLTISSLQAEDVAVYYCQHSREVPWTFGQGTKVEIK
notes: also called h1F6; h1 F6
B6: 2A4, full IgG (antibody, V domains shown)
VH: B1 VH with C108V, D110P
VL: B1 VL with L92S, K93N, F94W

Molecular target: T1, CD70 ECD (antigen immobilized on the CM5 chip) (UniProt P32970 39-193)
T1 construct: extracellular domain; also called CD70 antigen
T1 sequence (looked up): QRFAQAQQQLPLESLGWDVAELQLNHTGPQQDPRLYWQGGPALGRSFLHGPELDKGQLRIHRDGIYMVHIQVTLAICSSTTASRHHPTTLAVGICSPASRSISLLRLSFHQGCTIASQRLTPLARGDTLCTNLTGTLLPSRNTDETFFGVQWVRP
Assay: SPR (Biacore T200), CD70 ECD on CM5 chip; lower end tied to 2D2 by the KD values of Table 8
Description: (§1) The immobilization of antigen CD70 ECD was performed at 25° C. with HBS-EP as the running buffer. Sensor chip surface of flow cells 1, 4 were activated by freshly mixed 50 mmol/L N-Hydroxy succinimide (NHS) and 200 mmol/L 1-ethyl-3-(3-dimethylaminopropyl) carbodiimide hydrochloride (EDC) for 420s (10 μL/min). Afterwards, CD70 antigen diluted in 10 mmol/L NaAC (pH 4.5) was injected into flow cell 4 to achieve conjugation of the appropriate Response Unit, while flow cell 1 was set as a blank. After the amine coupling reaction, the remaining active coupling sites on chip surface were blocked by 420s injection of 1 mol/L ethanolamine hydrochloride.
(§2) The assay was performed at 25° C. and the running buffer was HBS-EP. Diluted antibodies were injected over the surface of flow cells 1 and 4 during the association phase, followed by injecting running buffer as the dissociation phase. All the data were processed using Biacore T200 Evaluation software version 3.1. Flow cell 1 and a blank injection of buffer in each cycle were used as a double reference for Response Units subtraction. Kinetic data of the interaction between the antibodies and CD70 antigen were obtained through affinity measurement.

Row | Binder | fold improved affinity against parent antibody 69A7
1 | B1 | 3 to 8 fold

Molecular target: T1, CD70 ECD (antigen immobilized on the …)
Assay: SPR (Biacore T200), CD70 ECD on CM5 chip, IgG as analyte
Description: as §1, §2

Row | Binder | Kd | koff | kon
2 | B2 | 313 nM | 0.00198 s⁻¹ | 6330 M⁻¹ s⁻¹
3 | B3 | 43.7 nM | 0.00112 s⁻¹ | 25600 M⁻¹ s⁻¹
4 | B1 | 89.6 nM | 0.00105 s⁻¹ | 11700 M⁻¹ s⁻¹
5 | B4 | 38.6 nM | 0.00197 s⁻¹ | 51000 M⁻¹ s⁻¹
6 | B5 | 52.3 nM | 0.00236 s⁻¹ | 45100 M⁻¹ s⁻¹

Molecular target: T2, human CD70 expressed on the cell surface of tumor cell lines (human, UniProt P32970 1-193)
T2 construct: whole, on cells
T2 sequence (looked up): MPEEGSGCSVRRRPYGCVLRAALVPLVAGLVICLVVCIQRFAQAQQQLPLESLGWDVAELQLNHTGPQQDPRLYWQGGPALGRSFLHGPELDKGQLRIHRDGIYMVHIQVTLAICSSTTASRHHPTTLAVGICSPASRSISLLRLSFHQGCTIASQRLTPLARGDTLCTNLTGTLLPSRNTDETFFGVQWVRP
Assay: flow cytometry on U251 cells, PE anti-human Fc, MFI; same fit as Table 6, which prints it in nM
Description: (§3) The lead antibodies were tested for binding to renal carcinoma cells and glioblastoma cells expressing CD70 on the cell surface by flow cytometry. […] U251 cells were cultured with MEM medium containing of 10% FBS and 1% NEAA+1 mM sodium pyruvate. DBTRG-05MG cells were cultured with DMEM medium (Gibco, Cat #C11995500BT) containing of 10% FBS. Each of the lead antibodies and the controls were incubated for 30 mins with the different cell lines (3×10⁵ cells per well) in 0.2 ml FACS buffer (1×PBS with 0.1% BSA) at 4° C. Then, the cells were pelleted, washed, and incubated at 4° C. for 30 mins with 100 μl of 1:200 diluted PE-conjugated anti human Fc (Abcam, Ab98596) in FACS buffer. The cells were pelleted again, washed with PBS, resuspended in FACS buffer and analyzed by flow cytometer (Beckman, CytoFLEX).
(§4) Antibodies 2H8 and 2D2 had slightly higher binding ability to the cell lines than that of antibody 69A7.

Row | Binder | EC50
7 | B2 | 1.22 µg/mL
8 | B3 | 1.2 µg/mL
9 | B1 | 1.11 µg/mL
10 | B4 | 0.708 µg/mL

Molecular target: T2, human CD70 expressed on the cell …
Assay: flow cytometry on DBTRG-05MG cells
Description: as §3, §4

Row | Binder | EC50
11 | B2 | 11.3 nM
12 | B3 | 9.6 nM
13 | B6 | 494 nM
14 | B1 | 13.7 nM
15 | B4 | 5.84 nM

Molecular target: T3, cynomolgus CD70 recombinant protein (cynomolgus, UniProt A0A2K5WTU9 39-190)
T3 construct: also called cyno-antigen; cynomolgus CD70 protein
T3 sequence: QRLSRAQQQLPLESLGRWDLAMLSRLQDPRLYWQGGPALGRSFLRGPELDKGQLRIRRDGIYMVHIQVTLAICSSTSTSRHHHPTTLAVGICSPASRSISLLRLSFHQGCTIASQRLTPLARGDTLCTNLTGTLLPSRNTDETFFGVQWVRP
Assay: ELISA, IgG titrated on coated cynomolgus CD70 recombinant protein (2 µg/ml), anti-human Fc-HRP, OD450
Description: (§5) The binding specificity of the CD70 antibodies was tested by ELISA according to a standard protocol. Briefly, 96-well micro-plates were coated with 2 μg/ml of human or cynomolgus CD70 recombinant protein in PBS at 100 μl per well and incubated overnight at 4° C. The plates were washed twice with TBS+0.5% Tween20. 200 μL of blocking buffer (2% BSA in PBS) was added to each well, and the plates were incubated at 37° C. for 2 hours. The plates were washed using the wash buffer mentioned above. Serially diluted antibodies were added to the ELISA plates using 100 μl per well, and the plates were incubated for 1 hour at room temperature. Then plates were washed 3 times. HRP conjugated anti-human Fc antibody solution (Sigma, I18885-2ML, diluted with blocking buffer) was added to the plates using 100 μl per well. The plates were incubated at room temperature for 1 hour and then washed 3 times. Then the TMB solution was added to plates using 100 μl per well and the plates were placed at RT for 5-15 mins. Then the stop solution (2M H2SO4) was added using 50 μl per well. The absorbance was measured at A450 and A630.

Row | Binder | EC50
16 | B2 | 0.0104 µg/mL
17 | B3 | 0.00326 µg/mL
18 | B1 | 0.00424 µg/mL
19 | B4 | 0.00335 µg/mL
20 | B5 | 0.00284 µg/mL

Molecular target: T2, human CD70 expressed on the cell …
Assay: flow cytometry on 786-O cells
Description: as §3, §4

Row | Binder | EC50
21 | B2 | 6.49 nM
22 | B3 | 5.12 nM
23 | B6 | 142 nM
24 | B1 | 5.62 nM
25 | B4 | 2.98 nM

Molecular target: T1, CD70 ECD (antigen immobilized on the …)
Assay: SPR (Biacore T200), CD70 ECD on CM5 chip; upper end tied to 2A4P0L1 by the KD values of Table 8
Description: as §1, §2

Row | Binder | fold improved affinity against parent antibody 69A7
26 | B4 | 3 to 8 fold

Molecular target: T4, human CD70 extra-cellular domain (ECD) linked to His tag (human, UniProt P32970 39-193)
T4 construct: extracellular domain; also called Hu CD70; HU CD70; not shown: His tag
T4 sequence (looked up): T1 sequence (looked up)
Assay: BLI (Octet RED), antibody on anti-human Fc tips, CD70 ECD-His at 100 nM
Description: Recombinant proteins consisting of human, rat, or mouse CD70 extra-cellular domain (ECD) linked to His tag was purchased (from ACRO systems). 69A7 and 2E7 (20 nM) were immobilized on anti-human IgG Fc biosensor tips (ForteBio). Binding assays using one concentration (100 nM) of recombinant protein in solution were performed using Octet RED (ForteBio). Association time was set at 180s and dissociation time was set at 300s. Binding affinity was calculated using ForteBio Data Acquisition 6.3 software. Affinity was derived by fitting the kinetic data to a 1:1 Langmuir binding model utilizing global fitting algorithms. […] 2E7 had no cross-reactivity to rat or mouse CD70 (Table 10).

Row | Binder | Kd | koff | kon
27 | B2 | 2.89 nM | 0.000978 s⁻¹ | 339000 M⁻¹ s⁻¹

Molecular target: T2, human CD70 expressed on the cell …
Assay: flow cytometry on U251 cells
Description: as §3, §4

Row | Binder | EC50
28 | B2 | 8.11 nM
29 | B3 | 7.99 nM
30 | B1 | 7.38 nM
31 | B4 | 4.72 nM

Molecular target: T2, human CD70 expressed on the cell …
Assay: flow cytometry on Caki-1 cells, PE anti-human Fc, MFI; same fit as Table 6, which prints it in nM
Description: as §3, §4

Row | Binder | EC50
32 | B2 | 1.48 µg/mL
33 | B3 | 0.847 µg/mL
34 | B1 | 0.896 µg/mL
35 | B4 | 0.816 µg/mL

Molecular target: T2, human CD70 expressed on the cell …
Assay: cell-based or functional assay

Row | Binder | Internalization rate (%) on 786-O | Internalization rate (%) on Caki-1
36 | B2 | 64% | 27%
37 | B3 | 76% | 62%
38 | B6 | 49% | 20%
39 | B1 | 76% | 53%
40 | B4 | 61% | 22%

Molecular target: T2, human CD70 expressed on the cell …
Assay: flow cytometry on Caki-1 cells
Description: as §3, §4

Row | Binder | EC50
41 | B2 | 9.89 nM
42 | B3 | 5.65 nM
43 | B6 | 284 nM
44 | B1 | 5.98 nM
45 | B4 | 5.44 nM

Molecular target: T5, human CD70 recombinant protein (human, UniProt P32970 39-193, limits assumed)
T5 construct: May be the same reagent as ACRO CDL-H5246; also called CD70 protein
T5 sequence (looked up): T1 sequence (looked up)
Assay: ELISA, IgG titrated on coated human CD70 recombinant protein (2 µg/ml), anti-human Fc-HRP, OD450
Description: as §5

Row | Binder | EC50
46 | B2 | 0.278 µg/mL
47 | B3 | 0.0595 µg/mL
48 | B6 | 9.1 µg/mL
49 | B1 | 0.087 µg/mL
50 | B4 | 0.263 µg/mL

Molecular target: T2, human CD70 expressed on the cell …
Assay: flow cytometry on DBTRG-05MG cells, PE anti-human Fc, MFI; same fit as Table 6, which prints it in nM
Description: as §3, §4

Row | Binder | EC50
51 | B2 | 1.7 µg/mL
52 | B3 | 1.44 µg/mL
53 | B1 | 2.06 µg/mL
54 | B4 | 0.876 µg/mL

Molecular target: T2, human CD70 expressed on the cell …
Assay: flow cytometry on 786-O cells, PE anti-human Fc, MFI; same fit as Table 6, which prints it in nM
Description: as §3, §4

Row | Binder | EC50
55 | B2 | 0.973 µg/mL
56 | B3 | 0.767 µg/mL
57 | B6 | 21.3 µg/mL
58 | B1 | 0.842 µg/mL
59 | B4 | 0.447 µg/mL
